Positions of bridges follow the written chain, without caps; N, C: chain ends. No end group written: not given here.

The values that follow come from patent US20030162942A1 (DYAX, published 2003).

The target of assay [1] is T1, recombinant human tissue-type plasminogen activator (tPA) (human, UniProt P00750 36-562).
T1 construct: Immobilized on ReactiGel agarose beads for the phage work; Used in solution for the column tests
In words: peptide bound to a chromatographic support.

Assay [2] has as its target human serum protease thrombin (human, UniProt P00734 328-622). As to the kind of experiment: phage binding to protein on beads (data not shown).
Assay [3] has as its target human serum protease plasmin (human, UniProt P00747 97-810, limits assumed). As to the kind of experiment: phage binding to protein on beads (data not shown).
Assay [4] deals with T1, recombinant human tissue-type …. In words: phage isolate binding to and pH release from immobilized tPA.
Assay [5] has the same target. In words: phage display selection on tPA agarose beads, binding at pH 7. The method, then: For this work, tPA was purchased from CalBiochem (#612200) and immobilized on ReactiGel™ agarose beads from Pierce Chemical Company by methods described in Markland et al. (1996). Approximately 200 μg of tPA were coupled to 200 μL of ReactiGel™ slurry.
The phage libraries described were screened for binding to tPA through four rounds. In the first round, the phage libraries were mixed in separate reactions with tPA agarose beads at pH 7 in phosphate-buffered saline (PBS). Bovine serum albumin (BSA) was added at 0.1% to reduce non-specific binding. Unbound phage were washed off at pH 7, and the bound phage eluted at pH 2 for the first screen only. […] Pool A consisted of the combined outputs from the CMTI and Lib#1 libraries, and Pool B consisted of the combined outputs of the Lib#3 and Lib#5 libraries. The binding of pooled libraries was performed at pH 7, however, the first elution to remove bound phage was carried out at pH 5 and a subsequent elution at pH 2 to elute phage that are released in the pH 5-pH 2 range. This was repeated twice more for a total of 4 rounds of selection.

T1 sequence (P00750 36-562 limits assumed): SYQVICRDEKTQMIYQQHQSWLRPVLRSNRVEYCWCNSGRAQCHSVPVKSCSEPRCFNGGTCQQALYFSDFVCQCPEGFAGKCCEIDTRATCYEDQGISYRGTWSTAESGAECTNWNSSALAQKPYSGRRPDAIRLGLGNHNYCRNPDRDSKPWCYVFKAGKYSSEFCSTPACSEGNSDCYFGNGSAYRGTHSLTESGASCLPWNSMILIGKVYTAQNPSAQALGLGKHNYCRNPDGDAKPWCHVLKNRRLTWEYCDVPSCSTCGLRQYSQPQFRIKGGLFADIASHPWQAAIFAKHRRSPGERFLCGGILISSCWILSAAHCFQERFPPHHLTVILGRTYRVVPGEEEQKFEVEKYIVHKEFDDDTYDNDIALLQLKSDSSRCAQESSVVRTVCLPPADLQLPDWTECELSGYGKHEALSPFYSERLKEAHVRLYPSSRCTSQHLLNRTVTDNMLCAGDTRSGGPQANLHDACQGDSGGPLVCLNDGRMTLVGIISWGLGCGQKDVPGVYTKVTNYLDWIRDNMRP
human serum protease plasmin, sequence (P00747 97-810 limits assumed): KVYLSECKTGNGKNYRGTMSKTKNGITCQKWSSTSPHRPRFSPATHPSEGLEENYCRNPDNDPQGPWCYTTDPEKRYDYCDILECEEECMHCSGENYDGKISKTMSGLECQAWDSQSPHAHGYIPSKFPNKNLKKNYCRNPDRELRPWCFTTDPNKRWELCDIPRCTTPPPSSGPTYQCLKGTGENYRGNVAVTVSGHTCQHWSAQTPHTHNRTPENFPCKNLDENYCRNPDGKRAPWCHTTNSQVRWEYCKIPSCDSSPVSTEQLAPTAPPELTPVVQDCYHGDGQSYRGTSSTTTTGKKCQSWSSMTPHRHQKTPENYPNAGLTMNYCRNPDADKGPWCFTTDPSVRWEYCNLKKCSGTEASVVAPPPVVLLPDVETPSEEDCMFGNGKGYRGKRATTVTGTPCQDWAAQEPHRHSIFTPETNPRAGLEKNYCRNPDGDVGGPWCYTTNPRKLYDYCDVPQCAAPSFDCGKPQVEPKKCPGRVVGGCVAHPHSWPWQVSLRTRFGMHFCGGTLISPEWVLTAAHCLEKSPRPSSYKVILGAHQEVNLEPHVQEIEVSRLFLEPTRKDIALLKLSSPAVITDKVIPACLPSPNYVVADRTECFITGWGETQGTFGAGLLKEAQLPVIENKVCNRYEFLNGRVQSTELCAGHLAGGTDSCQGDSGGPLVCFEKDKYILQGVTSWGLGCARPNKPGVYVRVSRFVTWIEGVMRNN

B1: 15-amino acid segment derived from affinity ligand isolate #109 (peptide)
peptide: RLCPKTDLGCMKDSD
modifications: disulfide 3-10; also: bound to a chromatographic support
notes: also called truncated 15-amino acid segment of the isolate #109; C3-C10 loop
In the case of B1, in assay [1], the binding result is on record as “binds”.

B2: CMTI-I analogue 105, phage isolate (designed binder)
chain: RLCPKTSLECMKDSDCLAECVCLEHGYCGAGPSYIEGRIVGSA
notes: not shown: mature gene III protein of M13 phage
As to B2, the figures for the binding result in assay [2], in assay [3] and in assay [4] were “no binding”, “no binding” and “binds”, respectively.

B3: CMTI-I analogue 108, phage isolate (designed binder)
chain: RWCSKSSLECMKDSDCLAECVCLEHGYCGAGPSYIEGRIVGSA
notes: as for B2
On to B3, for which the binding result in assay [2] is “no binding”; in assay [3] it was “no binding”; in assay [4], “binds”.

B4: CMTI-I analogue 106, phage isolate (designed binder)
chain: RWCSTYSLGCMKDSDCLAECVCLEHGYCGAGPSYIEGRIVGSA
notes: as for B2
Take B4: the binding result is reported as “no binding” in assay [2], “no binding” in assay [3] and “binds” in assay [4].

B5: CMTI-I analogue 237, phage isolate (designed binder)
chain: RWCPRSNLECMKDSDCLAECVCLEHGYCGAGPSYIEGRIVGSA
notes: as for B2
Take B5: the figures for the binding result in assay [5], in assay [2] and in assay [3] were “binds”, “no binding” and “no binding”, respectively.

B6: CMTI-I analogue 236, phage isolate (designed binder)
chain: RWCPRSSLECMKDSDCLAECVCLEHGYCGAGPSYIEGRIVGSA
notes: as for B2
Consider B6, for which the values for the binding result in assay [5], in assay [2] and in assay [3] were “binds”, “no binding” and “no binding”, respectively.

B7: CMTI-I analogue 238, phage isolate (designed binder)
chain: RWCPRSNLECMKDSDCLAECVCLEHGYCGAGPSYIEGRIVGSA
notes: as for B2
For B7, the binding result in assay [5] is on record as “binds”; in assay [2], “no binding”; in assay [3], “no binding”.

B8: CMTI-I analogue 109, phage isolate (designed binder)
chain: RLCPKTDLGCMKDSDCLAECVCLEHGYCGAGPSYIEGRIVGSA
notes: as for B2
Regarding B8, the values for the binding result in assay [2], in assay [3] and in assay [4] were “no binding”, “no binding” and “binds”, respectively.

B9: CMTI-I analogue 107, phage isolate (designed binder)
chain: RLCPKTSLECMKDSDCLAECVCLEHGYCGAGPSYIEGRIVGSA
notes: as for B2
Turning to B9, the results for the binding result in assay [2], in assay [3] and in assay [4] were “no binding”, “no binding” and “binds”, respectively.

B10: CMTI-I analogue 235, phage isolate (designed binder)
chain: RWCPKSTLGCMKDSDCLAECVCLEHGYCGAGPSYIEGRIVGSA
notes: as for B2
With B10, the values for the binding result in assay [5], in assay [2] and in assay [3] were “binds”, “no binding” and “no binding”, respectively.

B11: CMTI-I analogue 234, phage isolate (designed binder)
chain: RWCPRSSLECMKDSDCLAECVCLEHGYCGAGPSYIEGRIVGSA
notes: as for B2
B11: the binding result in assay [5] is on record as “binds”; in assay [2] it was “no binding”; in assay [3], “no binding”.
